# Test results published in patent publication US20250206839A1, “METHODS, COMPOSITIONS AND USES FOR SEMA7A MONOCLONAL ANTIBODIES” (THE REGENTS OF THE UNIVERSITY OF COLORADO, A BODY CORPORATE, priority 2022, published 2025).
# B1: SmAbH1: mouse monoclonal antibody against SEMA7A generated using the 10-mer immunizing peptide … (SEQ ID NO: 2) (antibody, V domains shown)
# VH: QVKLQESGTVLARPGASVKMSCKASVYSFTSYWMHWVKQRPGQGLEWIGAIYPGNSDTSYNQKFKGKAKLTAVTSASTAYMELSSLTNEDSAVYYCTRGGAPTMITAYYAMDYWGQGTSVTVSS
# VL: DIQMTQTTSSLSASLGDRVTISCRASQDISNYLNWYQQKPDGTVKLLIYYTSRLHSGVPSRFSGSGSGTDYSLTISNLEQEDIATYFCQQGNTLPWTFGGGTKLEIKR
# What was measured:
# [1] = test system: activated T cells in the tumors; test: Flow cytometry of immune cells in treated tumors; assay type: in vivo, mouse; details: IFNg and TNFa on CD8+ T cells
# Experimental: For initial in vivo studies with SmABHI. SEMA7A OE E0771 mouse mammary carcinoma cells were injected into mice. Twenty days after carcinoma cells were injected. SmAbH1 (e.g., 12 ug) was administered intraperitoneally to the mice every three days until day 36 post-carcinoma cell injection. Tissues were collected at day 36. Tumors, lungs, and LNs were harvested and processed for IHC and flow cytometry to determine the effect of SEMA7A mAb therapy on cells of the tumor microenvironment (TME). In an additional experiment, tumors were treated at day 28 post-injection with a novel SEMA7A directed antibody, monoclonal antibody clone H1. Fully regressed tumors were removed from treatment at day 50) and the animals were re-challenged with an additional tumor inoculation at day 90 to assess SEMA7A mAb effects. […]
# Tumors were separated from the mammary gland and placed in six-well plates with 2 mL of Click's media without mercaptoethanol or L-glutamine (Irvine Scientific, Santa Ana, CA), where they were minced with scalpels, digested with 500 units/ml collagenase type II and IV and 20 μg/ml DNase (Worthington Biochemical Corporation, Lakewood, NJ) and incubated for 1 h at 37° C. […] Geometric mean fluorescence intensity (gMFI) was calculated with FlowJo software. […] Cells were then stained with CD8, CD45, CD4, Gating was determined based on unstimulated controls. […]
# [2] = test system: human breast cancer MCF7A SEMA7A overexpressing cells; test: Immunofluorescence labeling of TAPI-1 treated SEMA7A overexpressing cells; assay type: cell-based; details: antibody 250:1, FITC secondary, cells treated with TAPI-1
# Experimental: In another exemplary method, the ability of anti-SEMA7A monoclonal antibodies to bind and label cells was tested. In an exemplary method, human breast cancer MCF7A SEMA7A overexpressing cells were treated with TAPI-1, a TACE/ADAM17 inhibitor that blocks SEMA7A shedding from the cell surface, and then incubated with an anti-SEMA7A monoclonal antibody (250:1) before visualization with a FITC secondary antibody (1000:1).
# Cells were fixed with 2% PFA or 1:1 acetone-methanol for 30 minutes at 4C, before washing once with PBS and blocking with 1% BSA in PBST for 1 hour at room temperature. After removal of the blocking solution, cells were incubated in primary antibody in 1% BSA in PBST overnight at 4° C. The primary antibody (SmAbH1 (lot 022823) was prepared at a 1:250 concentration by adding 4 μL stock solution to ImL 1% BSA in PBS. After primary removal cells were washed with PBS for 10 min×3 and incubated in secondary antibody in 1% BSA in PBS for 1-2 hours at room temperature (covered from light). The secondary antibody (Donkey anti-Mouse IgG Alexa Fluor 488 (Invitrogen A-21202)) was prepared at 1:1000 concentration by adding 1 μL into ImL 1% BSA in PBS. After removal of secondary antibody cells were washed with PBS for 10 min×3. VECTASHIELD Antifade Mounting Medium with DAPI (Vector Labs H-1200-10) was added and the cells were sealed with a glass coverslip. […]
# pSTAT3 in MDA231 cells = test: Western blot for phosphorylation of STAT3; assay type: cell-based, human; details: MDA231, high SEMA7A
# Excerpt: (§1) In another exemplary method the human triple negative breast cancer cell lines with low (MDA468) or high (MDA231) levels of SEMATA were again treated with SmAbH1 (CUH1) or commercially available monoclonal antibody-based inhibitors of an integrin receptor for SEMA7A (α6β1) and then evaluated using Western blot for phosphorylation of STAT3 (pSTAT3).
# pSTAT3 in MDA468 cells = test: Western blot for phosphorylation of STAT3; assay type: cell-based, human; details: MDA468, low SEMA7A
# Excerpt: as §1
molecule,measurement,setting,value
B1,activated T cells in the tumors,[1],increased presence of activated T cells
same,labeling of cells,[2],labeled the cell lines treated with TAPI-I
same,downstream STAT3 activation (pSTAT3),pSTAT3 in MDA231 cells,blocking block downstream STAT3 activation similar to integrin blockade
same,downstream STAT3 activation (pSTAT3),pSTAT3 in MDA468 cells,blocking block downstream STAT3 activation similar to integrin blockade
